The supplement of paper PMC10126150
± gives the standard deviation of the averaged measurements.

System: ATP
Experiment: switch fluorescence ratio, 500 uM ATP over buffer (Cy3 cluster intensity, sum of 5 cycles each) (fold (ratio)); higher = stronger signal-on switching upon ATP binding; sequences stand for … in TCGTCGGCAGCGTCAGATGTGTATAAGAGACAGTTTTTTTTTTTTTTTTTTTTTTTTT…TC
Settings: aptamer strand: ATP DNA aptamer (quencher-CACCTGGGGGAGTATTGCGGAGGAAGG + anchor), 100 nM annealed; ATP concentration: 500 uM
Summary of the method: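 After annealing to 100 nM quencher-labelled ATP aptamer, Cy3-labelled switching-strand clusters on a modified Illumina MiSeq flow-cell were imaged in selection buffer. A second image followed after 15 min with 500 uM ATP at 22 °C, and five such buffer/ATP cycles were done, each separated by NaOH stripping and re-annealing. The fluorescence ratio, averaged per switch-domain sequence, is summed target-cycle over summed buffer-cycle Cy3 intensity per cluster, with clusters outside 100-1000 RFU excluded.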
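Further: ATP exposure 15 min at 22 °C before imaging.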

Sequence	switch fluorescence ratio
GATGTATTAT	1.008 ± 0.0043
GATGTATTTT	0.9823 ± 0.004
GATGTCCACG	0.9874 ± 0.0051
GATGTCGGTC	0.9825 ± 0.0039
GATGTGAAAG	0.9638 ± 0.003
GATGTGATTA	0.982 ± 0.039
GATGTGCGTC	1.01 ± 0.023
GATGTTAAAC	1.06 ± 0.02
GATGTTCGAG	0.991 ± 0.011
GATGTTGCCG	1.05 ± 0.057
GATGTTGTGT	0.9802 ± 0.0091
GATGTTGTTT	1.03 ± 0.056
GATGTTTACT	1.0047 ± 0.00016
GATGTTTATG	0.975 ± 0.036
GATGTTTGTG	0.992 ± 0.045
GATGTTTTGG	0.986 ± 0.033
GATGTTTTTT	1.07 ± 0.14
GATTAAAAGT	0.969 ± 0.011
GATTAAACGG	1.04 ± 0.04
GATTAAAGCT	1.11 ± 0.039
GATTAAAGTT	1.02 ± 0.033
GATTAAATGT	0.992 ± 0.014
GATTAACCTA	1.013 ± 0.003
GATTAAGAGG	1.01 ± 0.039
GATTAAGGGC	1.0033 ± 6.6e-05

Sequence	switch fluorescence ratio
GATTAATTAC	1.06 ± 0.018
GATTACTCTG	1.03 ± 0.026
GATTAGACAC	1.013 ± 0.01
GATTAGCCGG	0.99 ± 0.015
GATTATATAG	0.957 ± 0.019
GATTATGATT	0.971 ± 0.013
GATTATGCGG	0.9849 ± 0.006
GATTCAAGAT	0.993 ± 0.03
GATTCATGGG	1.01 ± 0.0043
GATTCCATAG	1.06 ± 0.034
GATTCCGGAC	1.032 ± 0.0054
GATTCCGTTG	1.04 ± 0.016
GATTCGTATT	0.9757 ± 0.0047
GATTCTAGGG	0.9918 ± 0.0017
GATTCTGATT	0.9756 ± 0.0036
GATTGATGTT	1.013 ± 0.009
GATTGCAGTG	0.9786 ± 0.002
GATTGCATCG	0.9937 ± 0.0013
GATTGGAACG	0.976 ± 0.013
GATTGGACTA	1 ± 0.035
GATTGGGGAA	1.02 ± 0.013
GATTGGGGTA	0.978 ± 0.038
GATTGGTCTT	0.976 ± 0.03
GATTGTATCA	0.99 ± 0.014
GATTGTCTTA	0.979 ± 0.016

Sequence	switch fluorescence ratio
GATTGTGTTA	1.01 ± 0.043
GATTGTTGGG	0.984 ± 0.02
GATTGTTGTA	0.979 ± 0.014
GATTTAAACA	1.02 ± 0.029
GATTTAAGAG	0.988 ± 0.029
GATTTAAGGG	0.993 ± 0.018
GATTTAAGTG	1.018 ± 0.0065
GATTTAATTG	1.03 ± 0.09
GATTTAGGGG	0.961 ± 0.042
GATTTAGGTA	0.968 ± 0.027
GATTTATTGG	0.983 ± 0.032
GATTTATTTA	0.993 ± 0.015
GATTTCCCGC	1.26 ± 0.043
GATTTCGGCG	0.97 ± 0.03
GATTTGAGGC	0.987 ± 0.018
GATTTGATGA	0.9959 ± 0.002
GATTTGGACG	1.01 ± 0.028
GATTTGGAGG	0.97361 ± 7.9e-05
GATTTGGGCG	1.038 ± 0.0054
GATTTGGGGT	1 ± 0.033
GATTTGTAGG	1.01 ± 0.0069
GATTTTAATA	1.02 ± 0.016
GATTTTAGAC	0.995 ± 0.015
GATTTTCGCG	1.02 ± 0.037
GATTTTCGCT	0.971 ± 0.022

Sequence	switch fluorescence ratio
GATTTTCTTG	1.03 ± 0.017
GATTTTGGGG	1.01 ± 0.029
GATTTTGT	0.969 ± 0.037
GATTTTGTGC	1 ± 0.054
GATTTTTAGT	1.002 ± 0.0016
GATTTTTCGT	0.973 ± 0.01
GATTTTTGTG	0.992 ± 0.018
GCAAAAATGC	1.03 ± 0.031
GCAAAATAAA	1.05 ± 0.12
GCAAACGCAG	1.05 ± 0.032
GCAAACGGGG	1.07 ± 0.041
GCAAAGTGGG	0.9909 ± 0.0077
GCAAATTTTA	1.02 ± 0.015
GCAACATTCT	1.03 ± 0.022
GCAACCATTA	1.03 ± 0.018
GCAAGAATTT	0.982 ± 0.046
GCAAGACGTT	1.51 ± 0.045
GCAAGATGAT	1.17 ± 0.17
GCAAGATTGA	0.999 ± 0.044
GCAAGCAAGA	1.18 ± 0.067
GCAAGCTAGG	1.03 ± 0.017
GCAAGGGGGG	1.09 ± 0.081
GCAAGGTTAT	1.01 ± 0.018
GCAAGTAGTT	1.03 ± 0.053
GCAAGTTTGC	1.04 ± 0.042

Sequence	switch fluorescence ratio
GCAATAGGGT	1.37 ± 0.037
GCAATAGTGG	1.25 ± 0.025
GCAATCGTGG	1.035 ± 0.0042
GCAATTGTTG	1.021 ± 0.01
GCACAATTAG	1.04 ± 0.0071
GCACCAGGGG	1.81 ± 0.81
GCACCTTGAG	1.001 ± 0.0014
GCACGAATGC	1.06 ± 0.025
GCACGCGTGC	1.01 ± 0.044
GCACGGGGCA	1.01 ± 0.023
GCACGGGGGG	1.03 ± 0.0077
GCACTCTGGG	0.995 ± 0.029
GCACTGGGGC	1.01 ± 0.023
GCACTGTGGC	0.992 ± 0.032
GCACTTGTAA	1.005 ± 0.0056
GCAGAATGGG	1.08 ± 0.12
GCAGAGGGGT	1.04 ± 0.066
GCAGATAGGG	0.998 ± 0.016
GCAGCCGTGT	1.03 ± 0.04
GCAGCGGGGG	1.01 ± 0.027
GCAGCTTTTA	1.09 ± 0.018
GCAGGAGATT	1.01 ± 0.032
GCAGGAGTAG	1.01 ± 0.038
GCAGGCCCGA	1.009 ± 0.0034
GCAGGCTTGG	1.012 ± 0.0061

Sequence	switch fluorescence ratio
GCAGGGGGTG	1.11 ± 0.076
GCAGGTAGGG	0.998 ± 0.039
GCAGGTCTGT	0.9688 ± 0.0037
GCAGGTGAGG	1.18 ± 0.044
GCAGGTGGAG	1.02 ± 0.06
GCAGGTGGCG	1.01 ± 0.044
GCAGGTTCGG	1.01 ± 0.037
GCAGGTTGGT	1.036 ± 0.0042
GCAGTAGTTG	1.01 ± 0.026
GCAGTATGAG	0.99 ± 0.021
GCAGTATTTT	1.0075 ± 0.00081
GCAGTCTGGT	0.98106 ± 0.00091
GCAGTCTTTG	0.9936 ± 0.0046
GCAGTGTGCT	0.982 ± 0.031
GCAGTTTGGA	0.989 ± 0.015
GCAGTTTGGT	0.9978 ± 0.0039
GCAGTTTTA	1 ± 0.014
GCATAAAGGG	0.989 ± 0.019
GCATAATTTT	1.01 ± 0.028
GCATACAGGA	1.02 ± 0.024
GCATATTAGG	0.999 ± 0.03
GCATCCGTCG	1.04 ± 0.031
GCATGATTTA	1 ± 0.051
GCATGCTTAA	0.9876 ± 0.006
GCATGGGCAG	0.999 ± 0.023

Sequence	switch fluorescence ratio
GCATGGGTAC	1.05 ± 0.018
GCATGGTGAC	1.058 ± 0.0028
GCATGGTTAA	1.019 ± 0.0023
GCATGGTTAT	0.993 ± 0.036
GCATGTCGTT	1.001 ± 0.0047
GCATGTTAGG	1.01 ± 0.063
GCATTAGGGT	1.02 ± 0.014
GCATTATCTA	1.01 ± 0.07
GCATTATTGG	0.998 ± 0.016
GCATTCAATG	1.01 ± 0.024
GCATTCGATG	0.981 ± 0.013
GCATTTAAGT	0.993 ± 0.06
GCATTTGATG	1.0205 ± 0.00084
GCATTTTAGG	0.967 ± 0.045
GCATTTTATT	0.9938 ± 0.0026
GCCAACGCTG	1.1 ± 0.046
GCCAATGATC	1.01 ± 0.073
GCCAGAGAGT	1.01 ± 0.012
GCCAGCATAT	1.153 ± 0.0062
GCCAGGATTG	1.02 ± 0.013
GCCAGGCTGG	1.04 ± 0.021
GCCAGGGAGG	1.03 ± 0.026
GCCAGTCTGG	0.987 ± 0.025
GCCAGTGTTT	1.02 ± 0.056
GCCATAATAT	1.01 ± 0.023

Sequence	switch fluorescence ratio
GCCATAGCTG	1.007 ± 0.0029
GCCATATTTC	0.998 ± 0.041
GCCATCCTGC	1.05 ± 0.042
GCCATGGACA	0.9847 ± 0.00086
GCCATTGTTG	0.998 ± 0.018
GCCATTTTGA	0.956 ± 0.037
GCCCAAGGA	1.028 ± 0.0062
GCCCATGAGT	1.01 ± 0.011
GCCCCCCACA	1.1 ± 0.048
GCCCGCAGAA	1.76 ± 0.024
GCCCGCCCGC	1.38 ± 0.18
GCCCGCTAAT	2.25 ± 0.052
GCCCGGGAGC	1 ± 0.037
GCCCGGGGAC	1.18 ± 0.12
GCCCTGGAAC	1.01 ± 0.022
GCCCTGGTGT	5.93 ± 0.54
GCCGAAGCTG	1.08 ± 0.003
GCCGAGTTTC	1.02 ± 0.014
GCCGCCTGAT	0.986 ± 0.021
GCCGCGTGCG	1.06 ± 0.024
GCCGCTGGGA	1.01 ± 0.022
GCCGCTGTCG	0.963 ± 0.045
GCCGGAAAGG	0.9857 ± 0.0075
GCCGGAGTTA	1.06 ± 0.017
GCCGGATTGC	1.07 ± 0.033
